Here are results for seven sequences from the DeepSol protein solubility set.

This data set in a line: soluble on expression in E. coli; label from the status in PepcDB or PDB records.
For the sequence “MYETYHSGWIETITGSMFSGKSEELIRRLRRGIYAKQKVVVFKPAIDDRYHKEKVVSHNGNEIEAINISTAQEILNHKLEEVNVIGIDEVQFFEDDIVNIVEKLAENGHRVIVAGLDMDFRGEPFKPMPKLLAVSEHITKLQAVCSVCGSPSSRTQRLINGEPAKVDDPIILVGANESYEPRCRAHHIVAPSENEKEEMLEHHHHHH”, the “soluble on expression in E. coli” value is listed as “not soluble”.

For the sequence “MKRKSKAGGASDKSKSPKLKKRRSVVLEPIHISPKYLEDKFKTEFKKGFEKSNGPFPHWQLRNFVDNSDNVVEKIEDELQNFEGWKRKENDLYSLYQSDDLKSINPVENPAVFSFRQFLYKEVKEWLQNVSGVELTEQVDCNGSCYARTDSLLPHNDLIETRRFAFVYYITSADWDSEVNGGDLQLFNHDKKLQPTSVAAQFSPLRNSFMLFEVSEKSWHRVAEMLSEEPRLSINGWFHSTRRIEPKKPAVEAIQRFVPEAACKLSKLISKEYLQKERQDEVQQTFADSSELNLSKFIFEEIHDNAYSELISNPSCFETVGPVSKRHVARLDEEKSADLQNTKRIIQCLKSKNFAKLAAKLTGVTVTGAQTSVKVSRVEHGTYWVLGDEDAEQSSTDGYCLDVHLFVQKTNWDDEAGGDLIYIEEGDTEELLRISPSPNAASIVFREPGVISFMKYANCKSSDPFFLFTVSFYNVQVVED”, the “soluble on expression in E. coli” value is “not soluble”.

In the case of “MTVESVNPETRAPAAPGAPELREPPVAGGGVPLLGHGWRLARDPLAFMSQLRDHGDVVRIKLGPKTVYAVTNPELTGALALNPDYHIAGPLWESLEGLLGKEGVATANGPLHRRQRRTIQPAFRLDAIPAYGPIMEEEAHALTERWQPGKTVDATSESFRVAVRVAARCLLRGQYMDERAERLCVALATVFRGMYRRMVVPLGPLYRLPLPANRRFNDALADLHLLVDEIIAERRASGQKPDDLLTALLEAKDDNGDPIGEQEIHDQVVAILTPGSETIASTIMWLLQALADHPEHADRIRDEVEAVTGGRPVAFEDVRKLRHTGNVIVEAMRLRPAVWVLTRRAVAESELGGYRIPAGADIIYSPYAIQRDPKSYDDNLEFDPDRWLPERAANVPKYAMKPFSAGKRKCPSDHFSMAQLTLITAALATKYRFEQVAGSNDAVRVGITLRPHDLLVRPVARHHHHHH”, the “soluble on expression in E. coli” value is “soluble”.

Turning to “MIFTYNKEHVGDVLMVIVKDSKGAKLNCERKGKVTRIFLEKNKETVAWNIFAVSNLLDLNGNGQVFLTDEELAVLNAELAKEGFEEKLENNAAAKFVVGEIVEMVAHPDSDHLNICQVKIAEDKTVQIVAGAPNARVGLKTIVALPGAMMPSGGLIFPGNLRGEKSFGMLCSPRELALPKAPQKRGIIELSTDAVIGQAFDAGKHWKGLEHHHHHH”, the “soluble on expression in E. coli” value was “not soluble”.

For “MATHGQTCARPMCIPPSYADLGKAARDIFNKGFGFGLVKLDVKTKSCSGVEFSTSGSSNTDTGKVTGTLETKYKWCEYGLTFTEKWNTDNTLGTEIAIEDQICQGLKLTFDTTFSPNTGKKSGKIKSSYKRECINLGCDVDFDFAGPAIHGSAVFGYEGWLAGYQMTFDSAKSKLTRNNFAVGYRTGDFQLHTNVNDGTEFGGSIYQKVCEDLDTSVNLAWTSGTNCTRFGIAAKYQLDPTASISAKVNNSSLIGVGYTQTLRPGVKLTLSALVDGKSINAGGHKVGLALELEA”, the “soluble on expression in E. coli” value is recorded as “soluble”.

On to “MAGDCSSHWPVTNPPRGYLSSRRLLEHSTRSIGQTVIHTRDPCDGTGMGVAVIGASMTKFGQRDVWIRELLSQAGEECLTDAGVAPDDVEHLYVSNMASGEFEGQTGIMNLLAHDLGVLPAYSERVDQTSSSGGAGIYEAWQSVASGASEMTLLVGGEKMTHKTTGQATDIIASITHPDEYKHGVTLPSFAGMTARHYLERFDAPRESLARVAVKNHRNGVDNPKAQFQKEITMEKALESPIIADPLRLYDFCPITDGSAALMFTTEERAKEITDEYALVSGIGGATDTHVVHERDDPTIMGGVVESSKQAYEMAGLGPNDLDVAELHDMFTILEFLQLEGIGVADQGTAWEMAMDGVTAKDGELPINTSGGLKSKGHPLGASGVAQGVEIYEQLVGEAGPRQVEADTALACNVGGFGNCVITTIMEAAE”, for which the “soluble on expression in E. coli” value is “not soluble”.

In the case of “GPGSMQIRRATMEDMYQMQHCNLRCLPENYNLRYYFYHILSWPQLLYVQEDYNRNIVGYVLAKMEDEEKPANIHGHITSIAVLRTHRRLGIASRVMRASMKEMEKEYDANYCSLHVRKTNDAALHLYQETLGFRCANVEKGYYVDEEDAFHMKKFFKGPNPGLYVAANRQLVRQQNSAAAAVTGMAALQRNGGTAPPPPPPSSSSAGGQRGENDTADLEKEQLKLVAELLEESNKESGKGRQQKQKQQQQSKGGNKRGKTKK”, the “soluble on expression in E. coli” value is “soluble”.
